# According to the supplement of paper PMC12042874:
# ± gives the uncertainty stated by the source.
# Assay: amyloid nucleation score (Sup35N fusion, yeast selection) (log enrichment); library NNK2; higher = more nucleation; inactive = no reads after selection
# Procedure, shortened: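 Using DiMSum, nucleation scores were taken as the log enrichment of output over input reads, centred on the mode score of non-aggregating sequences. The input and output reads came from Illumina sequencing of plasmid inserts, with sequences under 100 input reads excluded. The yeast were psi-negative, expressed Sup35N fused to peptides of 20 random codons, were induced with 100 μM copper sulfate for 24 hours, and were grown 7 days at 30°C on medium lacking adenine and uracil.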
row,Substance,amyloid nucleation score
1,FACFI,0.271 ± 0.25
2,FAGWIYGCTDRMVCLCSGGF,inactive
3,FAHAIVSHDWDQRVRGWSGC,0.836 ± 0.41
4,FAKCHFSQSARYIY,inactive
5,FALLPCDKVCLGVREWFNFG,inactive
6,FANRILCVVSGINRVTGL,0.192 ± 0.34
7,FAPCNCSCVK,0.827 ± 0.58
8,FAYFDDLGVLMLYQLNRMSL,-0.097 ± 1.1
9,FCCHHCITGITEKAN,0.674 ± 0.36
10,FCEICPKYYALFEEGQLSGR,3.62 ± 0.068
11,FCESCKWNL,1.29 ± 0.14
12,FCIPYGGLIDTA,-1.52 ± 0.41
13,FCLIHVVM,1.32 ± 0.27
14,FCMAISFQCVNTRGFMPTAG,7.394 ± 0.071
15,FCRIAATTRHMHGGLVGRWS,1.04 ± 0.68
16,FCYAYTFMHEYLRGC,0.737 ± 0.3
17,FDALY,0.025 ± 0.25
18,FDFLSSFPRLWVRVEGIPCF,-0.994 ± 0.55
19,FDGLIFSITRTLVY,-1.42 ± 1.1
20,FDLCTLFYNSRFHIIRYWVT,inactive
21,FDQSFFNLPQGTFLVLYSSA,inactive
22,FDWFNAYSF,0.092 ± 0.61

row,Substance,amyloid nucleation score
1,FDYAQRWSQP,0.121 ± 0.49
2,FEIGSV,inactive
3,FELLPTR,3.3 ± 0.079
4,FEMGFHVWDM,inactive
5,FENDFMRVSCDGSRGILCVL,2.48 ± 0.11
6,FEPWWCNSIMRLVVIEGEW,0.315 ± 0.46
7,FFCMA,5.48 ± 0.056
8,FFDRMLYLRVARCTTFWPVD,0.492 ± 0.64
9,FFDYIGRYYNLKH,inactive
10,FFFDDSKVYQNWEEDVEGNQ,-0.389 ± 0.34
11,FFFKSSLLR,0.241 ± 0.8
12,FFFVFVGDVR,2.08 ± 0.15
13,FFGAFGPRWGNYENITLCSY,inactive
14,FFIGIQQWSYHWPVVGVYNK,inactive
15,FFKLNVRERYWLVKGKSRFR,2.96 ± 0.087
16,FFMYHAVL,1.02 ± 0.34
17,FFNLNYMGFHSDIGSLIYPC,inactive
18,FFTMCVAMYVVRSAYGMHN,-0.03 ± 0.44
19,FFTRRLNSNWMCFLADNCYR,-0.439 ± 0.64
20,FFWFQTSLDTPWKEVILVYI,-0.719 ± 0.79
21,FFWNM,-0.274 ± 0.34
22,FGCNSSGWNVKIPSGGLGNE,-0.647 ± 0.53

row,Substance,amyloid nucleation score
1,FGDVQKPVRMLFVFSFWLLG,-0.392 ± 0.79
2,FGFCGFMVHVGLVRDFLFC,0.257 ± 0.56
3,FGFSEGEMVPSFI,-1.21 ± 1
4,FGFVTKYFMGV,1.96 ± 0.23
5,FGIFVNRLCFSIDSYAGNGK,6.605 ± 0.037
6,FGKFFCCWSSLRNEKCYFAM,inactive
7,FGKNYNFCNV,-0.184 ± 0.63
8,FGKYDGTYRSPVGYGFMWS,0.397 ± 0.41
9,FGLDYVTYVRWAGVCHLLYF,-0.56 ± 0.55
10,FGLLLWYLCFSHIG,inactive
11,FGLQMQAWREKDHQENGLIQ,0.798 ± 0.31
12,FGLTRPEKWEHLHVYCNYMS,0.615 ± 0.38
13,FGLWQVPSGWNTADRA,0.743 ± 0.58
14,FGMILPFGDIFTLASDFRVR,-0.833 ± 1.1
15,FGSLTMEEFGDGDVVSNNKG,-0.956 ± 0.31
16,FGSVSSWELPRP,0.197 ± 0.63
17,FGTKHFVICSL,-0.989 ± 0.76
18,FGYFNVHSKSSGIMKWCGQC,-0.612 ± 0.54
19,FGYFYMKHLTPALMPYTGY,-0.441 ± 1.1
20,FGYMCEAPHRVDFRLFELLQ,inactive
21,FHDNVTQFFISISAKIYKA,4.45 ± 0.058
22,FHGHQPYFWNVL,0.326 ± 0.54

row,Substance,amyloid nucleation score
1,FHLRWRFSSSSNNITRRRCR,0.115 ± 1
2,FHNLASFVRKSRVYQHKRNA,-0.231 ± 0.63
3,FHQIKFRVSFMHCRTSSANI,2.25 ± 0.089
4,FHRCSYLVT,2.95 ± 0.09
5,FHRNMMVLQCIRRVL,0.016 ± 1.1
6,FHSRAEICLIWNHIVQDWRN,3.58 ± 0.071
7,FHVKIGW,-0.086 ± 0.33
8,FIDIKSICCRHMNDWHCLSE,-0.603 ± 0.32
9,FIFLNNIHTYIYYVR,6.292 ± 0.034
10,FIGVSGLRCRGVMCSCYASY,1.53 ± 0.17
11,FIHTRRCKYGWTSRFKTLTW,0.105 ± 1.1
12,FIILI,-1.29 ± 0.54
13,FIIVK,-1.32 ± 0.41
14,FILDGSPVYWAIWKGG,-1.46 ± 0.78
15,FIMYFVASRVNSYSSTLRVN,inactive
16,FINNNNGAPSRVHPTGALTR,-0.357 ± 0.53
17,FIPYNSW,0.689 ± 0.16
18,FIRHSTSALGP,0.889 ± 0.43
19,FISSSYSKEFSIYEFIDIFR,-0.539 ± 0.54
